{
  "source": "paper PMC7954740",
  "about": "“Degradation of the low-calorie sugar substitute 5-ketofructose by different bacteria” (Applied Microbiology and Biotechnology, 2021)",
  "molecules": {"B1": {"name": "TM-KFR (Tatumella morbirosei) (protein)", "chain": "AEQQNFLSELTGSFSSPCNENPTVAMMEEAYRHQGINARYINCDVGKQQLEMAVAGAKAMGWRGFNCSIPNKQAILSYIDEVGTSAKVIGAVNCVIIREGKLTGENTDGKGFVEALKQQIDPEGKKLALLGAGGAARAIAVESALAGVSEITIINRDKAKGEALAELINANTDATATYVEWSSGLKVDKNFDILVNATSVGLDDAEAMPDIDTDSLSEELFVADVIPNPPQTALLRAASDKGCRTLNGLNMLVNQGALNLAYWFDTTADKAPMRKVLQTLFTG"}, "B2": {"name": "GOX1432 (Gluconobacter oxydans 621H) (protein)", "chain": "MITRETLKSLPANVQAPPYDIDGIKPGIVHFGVGNFFRAHEAFYVEQILEHAPDWAIVGVGLTGSDRSKKKAEEFKAQDCLYSLTETAPSGKSTVRVMGALRDYLLAPADPEAVLKHLVDPAIRIVSMTITEGGYNINETTGAFDLENAAVKADLQNPEKPSTVFGYVVEALRRRRDAGGKAFTVMSCDNLRHNGNVARKAFLGYAKARDPELAKWIEENATFPNGMVDRITPTVSAEIAKKLNAASGLDDDLPLVAEDFHQWVLEDRFANGRPPLEKAGVQLVDDVTDWEHVKIRMLNAGHITLCFPGILVGYENVDDAIEDKDLRGNLENYLNKDVIPTLKAPPGMTLEGYRDSVISRFSNKAMSDQTLRIASDGCSKIQVFWTETVRRAIECKRDLSRIAFGIASYLEMLRGRDEKGGTYESSEPTYGEAQKKLAKADDFESALKLPAFDGWRDLDTSELDQKVIALRKVIREKGVKAAIPA"}, "B3": {"name": "CP-AKR (Clostridium pasteurianum DSM 525 = ATCC 6013) (protein)", "chain": "MVKSIKDVITLNNGVEIPQHGFGVYLITDEEKAYKAINKALEVGYRAFDTAQFYENEPLLGKILNESSLSRDELFITTKVANYNQGYDSTLSTVEQSLKDLRVDQLDLLLIHWPSKKRFFETWRAMEKLYNEKLVKAIGVSNYEIHHLEELISNSDIKPVIDQVESHPYLIQQELKDYVDKNNIAFQAWSPLGRGAVLKDPIIKIIAEQHNKSIAQVIIRWHLQKGNIVIPKSITPSRIEENADVYDFALTEEEMKIIDALNRAERTGDDPDSIYFQM"}},
  "assay_in_all_cases": "purified protein",
  "key": {"[1]": {"tested_on": "O=C(CO)[C@@H](O)[C@H](O)C(=O)CO", "format": "biochemical, Gluconobacter oxydans", "details": "NADPH co-substrate, pH 7, 35 °C (optimum)"}, "[2]": {"substrate": "NC(=O)C1=CN([C@@H]2O[C@H](COP(=O)(O)OP(=O)(O)OC[C@H]3O[C@@H](n4cnc5c(N)ncnc54)[C@H](OP(=O)(O)O)[C@@H]3O)[C@@H](O)[C@H]2O)C=CC1", "details": "5-KF co-substrate, pH 7.0, 30 °C, varied: cofactor"}, "[3]": {"substrate": "O=C(CO)[C@@H](O)[C@H](O)C(=O)CO", "details": "NADPH co-substrate, pH 7.0, 30 °C, potassium phosphate"}, "[4]": {"substrate": "O=C(CO)[C@@H](O)[C@H](O)C(=O)CO", "format": "biochemical, Gluconobacter oxydans", "details": "NADPH co-substrate, pH 7, 30 °C (optimum)"}, "[5]": {"substrate": "NC(=O)C1=CN([C@@H]2O[C@H](COP(=O)(O)OP(=O)(O)OC[C@H]3O[C@@H](n4cnc5c(N)ncnc54)[C@H](OP(=O)(O)O)[C@@H]3O)[C@@H](O)[C@H]2O)C=CC1", "format": "biochemical, Clostridium pasteurianum", "details": "5-KF co-substrate, pH 6, 40 °C (optimum), varied: cofactor"}, "[6]": {"substrate": "O=C(CO)[C@@H](O)[C@H](O)C(=O)CO", "format": "biochemical, Clostridium pasteurianum", "details": "NADPH co-substrate, pH 6, 40 °C (optimum)"}},
  "data": [
    {"molecule": "GOX0644 (Gluconobacter oxydans 621H)", "values": [
      {"measurement": "Km", "setting": "[1]", "result": "4000 ± 800", "unit": "µM"},
      {"measurement": "kcat", "setting": "[1]", "result": "18.9 ± 1.2", "unit": "s⁻¹"}
    ]},
    {"molecule": "B1", "values": [
      {"measurement": "Km", "setting": "[2]", "result": "20.4 ± 11.5", "unit": "µM"},
      {"measurement": "Km", "setting": "[3]", "result": "6400 ± 600", "unit": "µM"},
      {"measurement": "kcat", "setting": "[3]", "result": "913.9 ± 85.2", "unit": "s⁻¹"}
    ]},
    {"molecule": "B2", "values": [
      {"measurement": "Km", "setting": "[4]", "result": "42000 ± 5400", "unit": "µM"},
      {"measurement": "kcat", "setting": "[4]", "result": "214.6 ± 7.5", "unit": "s⁻¹"}
    ]},
    {"molecule": "B3", "values": [
      {"measurement": "Km", "setting": "[5]", "result": "12.4 ± 3.8", "unit": "µM"},
      {"measurement": "Km", "setting": "[6]", "result": "1300 ± 200", "unit": "µM"},
      {"measurement": "kcat", "setting": "[6]", "result": "29.3 ± 4.3", "unit": "s⁻¹"}
    ]}
  ]
}
